From the supplement of paper PMC11316812 come the findings set out here.

One series relates to MCF7. Description: percentage of EdU-negative (G0-arrested) nuclei per well, 72 h; higher = more G0 arrest. The conditions noted are these: reference: sequence is the full UniProt precursor, the tested protein was the secreted form or ectodomain.
Another series relates to hTERT-HMEC. The series is described as above. The following applies: reference: sequence is the full UniProt precursor, the tested protein was the secreted form or ectodomain.
Setting [1] is: protein concentration 0.0357143 µM.
The mark [2] stands for this setting: protein concentration 0.357143 µM.
The mark [3] stands for this setting: protein concentration 0.0293325 µM.
Where [4] appears, read: protein concentration 0.293325 µM.
Setting [5] is: protein concentration 0.00975 µM.
Where [6] appears, read: protein concentration 0.0975 µM.
Setting [7] is: protein concentration 0.0225 µM.
[8] abbreviates: protein concentration 0.0055 µM.

± gives the standard deviation of the averaged measurements.
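Also: secreted proteins added to cultured cells, EdU pulse at the end, nuclei found by Hoechst imaging, EdU status from nuclear versus surrounding ring intensity ratio, PBS as neutral control.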

As for “MLGIWTLLPLVLTSVARLSSKSVNAQVTDINSKGLELRKTVTTVETQNLEGLHHDGQFCHKPCPPGERKARDCTVNGDEPDCVPCQEGKEYTDKAHFSSKCRRCRLCDEGHGLEVEINCTRTQNTKCRCKPNFFCNSTVCEHCDPCTKCEHGIIKECTLTSNTKCKEEGSRSNLGWLCLLLLPIPLIVWVKRKEVQKTCRKHRKENQGSHESPTLNPETVAINLSDVDLSKYITTIAGVMTLSQVKGFVRKNGVNEAKIDEIKNDNVQDTAEQKVQLLRNWHQLHGKKEAYDTLIKDLKKANLCTLAEKIQTIILKDITSDSENSNFRNEIQSLV”, the “percentage of EdU-negative” value in the series with MCF7 (setting [1]) turned out to be 23.4 ± 1.9%; with MCF7 (setting [2]), 26.6 ± 0.71%; with hTERT-HMEC (setting [1]), 5.07 ± 0.45%; with hTERT-HMEC (setting [2]), 5.88 ± 1.1%.
On to “MPVMRLFPCFLQLLAGLALPAVPPQQWALSAGNGSSEVEVVPFQEVWGRSYCRALERLVDVVSEYPSEVEHMFSPSCVSLLRCTGCCGDENLHCVPVETANVTMQLLKIRSGDRPSYVELTFSQHVRCECRHSPGRQSPDMPGDFRADAPSFLPPRRSLPMLFRMEWGCALTGSQSAVWPSSPVPEEIPRMHPGRNGKKQQRKPLREKMKPERCGDAVPRR”, for which the “percentage of EdU-negative” value came out at 24.4 ± 0.58% in the series on MCF7 (setting [3]), 25.4 ± 0.6% in the series with MCF7 (setting [4]), 4.772 ± 0.0079% in the series on hTERT-HMEC (setting [3]) and 5.02 ± 0.86% in the series with hTERT-HMEC (setting [4]).
In the case of “MASSWKLMLFLSVTMCLSEYSKSLPGLSTSYAALLRIKKSSSSSLFGSKTRPRYSSPSLGTLSASSPSWLGAAQNYYSPINLYHSSDAFKQDESVDYGPVFVQEPDDIIFPTDSDEKKVALNCEVRGNPVPSYRWLRNGTEIDLESDYRYSLIDGTFIISNPSEAKDSGHYQCLATNTVGSILSREATLQFAYLGNFSGRTRSAVSVREGQGVVLMCSPPPHSPEIIYSWVFNEFPSFVAEDSRRFISQETGNLYISKVQTSDVGSYICLVKNTVTNARVLSPPTPLTLRNDGVMGEYEPKIEVHFPFTVTAAKGTTVKMECFALGNPVPTITWMKVNGYIPSKARLRKSQAVLEIPNVQLDDAGIYECRAENSRGKNSFRGQLQVYTYPHWVEKLNDTQLDSGSPLRWECKATGKPRPTYRWLKNGVPLSPQSRVEMVNGVLMIHNVNQSDAGMYQCLAENKYGAIYASAELKILASAPTFALNQLKKTIIVTKDQEVVIECKPQGSPKPTISWKKGDRAVRENKRIAILPDGSLRILNASKSDEGKYVCRGENVFGSAEIIASLSVKEPTRIELTPKRTELTVGESIVLNCKAIHDASLDVTFYWTLKGQPIDFEEEGGHFESIRAQASSADLMIRNILLMHAGRYGCRVQTTADSVSDEAELLVRGPPGPPGIVIVEEITESTATLSWSPAADNHSPISSYNLQARSPFSLGWQTVKTVPEIITGDMESAMAVDLNPWVEYEFRVVATNPIGTGDPSTPSRMIRTNEAVPKTAPTNVSGRSGRRHELVIAWEPVSEEFQNGEGFGYIVAFRPNGTRGWKEKMVTSSEASKFIYRDESVPPLTPFEVKVGVYNNKGDGPFSQIVVICSAEGEPSAAPTDVKATSVSVSEILVAWKHIKESLGRPQGFEVGYWKDMEQEDTAETVKTRGNESFVILTGLEGNTLYHFTVRAYNGAGYGPPSSEVSATTKKSPPSQAPSNLRWEQQGSQVSLGWEPVIPLANESEVVGYKVFYRQEGHSNSQVIETQKLQAVVPLPDAGVYIIEVRAYSEGGDGTASSQIRVPSYSGGKITSAQSTLHSLSTSSSSVTLLLALMIPSTSW”, the “percentage of EdU-negative” value with MCF7 (setting [5]) stood at 26.6 ± 0.15%; with MCF7 (setting [6]), 27.7 ± 2.5%; with hTERT-HMEC (setting [5]), 4.88 ± 0.2%; in the series on hTERT-HMEC (setting [6]), 10.4 ± 0.39%.
In the case of “MKFTTLLFLAAVAGALVYAEDASSDSTGADPAQEAGTSKPNEEISGPAEPASPPETTTTAQETSAAAVQGTAKVTSSRQELNPLKSIVEKSILLTEQALAKAGKGMHGGVPGGKQFIENGSEFAQKLLKKFSLLKPWA [Q9GZZ8]”, the “percentage of EdU-negative” value worked out at 25.6 ± 1.3% in the series on MCF7 (setting [7]), 24.5 ± 0.39% with MCF7 (protein concentration 0.225 µM), 4.93 ± 0.13% in the series with hTERT-HMEC (setting [7]) and 5.83 ± 0.8% in the series with hTERT-HMEC (protein concentration 0.225 µM).
The corresponding values for “MLSGRLVLGLVSMAGRVCLCQGSAGSGAIGPVEAAIRTKLEEALSPEVLELRNESGGHAVPPGSETHFRVAVVSSRFEGLSPLQRHRLVHAALAEELGGPVHALAIQARTPAQWRENSQLDTSPPCLGGNKKTLGTP [Q9Y3E2]” are 28 ± 1.9%, 27.3 ± 2.5%, 5.42 ± 0.18% and 5.59 ± 0.52%.
On to “MRLTVLCAVCLLPGSLALPLPQEAGGMSELQWEQAQDYLKRFYLYDSETKNANSLEAKLKEMQKFFGLPITGMLNSRVIEIMQKPRCGVPDVAEYSLFPNSPKWTSKVVTYRIVSYTRDLPHITVDRLVSKALNMWGKEIPLHFRKVVWGTADIMIGFARGAHGDSYPFDGPGNTLAHAFAPGTGLGGDAHFDEDERWTDGSSLGINFLYAATHELGHSLGMGHSSDPNAVMYPTYGNGDPQNFKLSQDDIKGIQKLYGKRSNSRKK”, for which the “percentage of EdU-negative” value in the series with MCF7 (setting [8]) worked out at 26.4 ± 1.6%; with MCF7 (protein concentration 0.055 µM), 29.9 ± 0.45%; in the series with hTERT-HMEC (setting [8]), 5.71 ± 0.72%; in the series with hTERT-HMEC (protein concentration 0.055 µM), 15 ± 1.8%.
As for “MKLGLLCALLSLLAGHGWADTRAIGAEECRPNSQPWQAGLFHLTRLFCGATLISDRWLLTAAHCRKPYLWVRLGEHHLWKWEGPEQLFRVTDFFPHPGFNKDLSANDHNDDIMLIRLPRQARLSPAVQPLNLSQTCVSPGMQCLISGWGAVSSPKALFPVTLQCANISILENKLCHWAYPGHISDSMLCAGLWEGGRGSCQGDSGGPLVCNGTLAGVVSGGAEPCSRPRRPAVYTSVCHYLDWIQEIMEN [Q9UKQ9]”, the “percentage of EdU-negative” value in the series on MCF7 (setting [7]) was 26.66 ± 0.14%; in the series with MCF7 (protein concentration 0.225 µM) it was 29.4 ± 2.3%; with hTERT-HMEC (setting [7]), 5.253 ± 0.046%; with hTERT-HMEC (protein concentration 0.225 µM), 5.62 ± 1.2%.
